In the RNAGym collection of RNA variant scans (doi:10.7554/elife.80360):

B1: HDV Ribozyme (parent)
chain: GGCCGGCAUGGUCCCAGCCUCCUCGCUGGCGCCGGCUGGGCAACAUUCCGAGGGGACCGUCCCCUCGGUAAUGGCGAAUGGGACCCA

Variants of: B1
Experiment: self-cleavage, relative activity (ratio to wild type); higher = more cleavage; co-transcriptional
With C57A G76C the self-cleavage was 1.05. Work on C57A G76A yielded a self-cleavage of 1.18. U60C gave a self-cleavage of 1.01. Work on U60G yielded a self-cleavage of 0.978. In the case of U60A, the self-cleavage is reported as 1. For G59U C84A, the self-cleavage was 0.863. In the case of C57G C58U, the self-cleavage is reported as 1.07. With C58U A77C the self-cleavage was 0.489. G59C G74U gave a self-cleavage of 0.531. C57A A71G gave a self-cleavage of 0.98. Work on C57A U72A yielded a self-cleavage of 0.674. Variant C61U C84A has a self-cleavage of 0.992. Variant C61U C84G has a self-cleavage of 0.589. C57U U60A showed a self-cleavage of 1.07. G59A G68A gave a self-cleavage of 0.968. C57A C64U gave a self-cleavage of 1. In the case of U60A U69C, the self-cleavage is reported as 1.08. Variant G59A G67U has a self-cleavage of 0.918. For U60G A83C, the self-cleavage was 0.612. Variant C58G A87U has a self-cleavage of 0.897. In the case of G59U A87G, the self-cleavage is reported as 0.993. U60C C62A gave a self-cleavage of 1.01. For G59A A77C, the self-cleavage was 0.475. Work on C61U C66U yielded a self-cleavage of 0.736. For C57U A78C, the self-cleavage was 0.312. In the case of C61G A71G, the self-cleavage is reported as 0.808. For C61G A71U, the self-cleavage was 0.997. Work on U60C C66G yielded a self-cleavage of 1.02. For C57G U65G, the self-cleavage was 0.85. Work on C58G U72G yielded a self-cleavage of 0.447. For C58G U72C, the self-cleavage was 0.369. U60C U65A gave a self-cleavage of 1.27. For G59C C66A, the self-cleavage was 0.914. In the case of C57A C66U, the self-cleavage is reported as 1.18. C57U C58G showed a self-cleavage of 0.762. For C57G A83G, the self-cleavage was 0.917. In the case of C57A G74C, the self-cleavage is reported as 0.108. In the case of U60A C62G, the self-cleavage is reported as 0.997. Variant U60G A87U has a self-cleavage of 0.906. For U60A C84G, the self-cleavage was 0.475. For U60G G82A, the self-cleavage was 0.6. Variant U60G C66G has a self-cleavage of 1.05. G59C G80A showed a self-cleavage of 0.409. With U60A A87U the self-cleavage was 0.985. Variant C58A G82C has a self-cleavage of 0.17. Work on C58A G82U yielded a self-cleavage of 0.376. In the case of C58G A78C, the self-cleavage is reported as 0.102. With G59A C86A the self-cleavage was 0.842. Variant C58U G67C has a self-cleavage of 1.07. C57G C63A gave a self-cleavage of 0.956. For C61G A87C, the self-cleavage was 0.983. G59A G74A gave a self-cleavage of 0.431. Variant C58U A71C has a self-cleavage of 0.85. C58U A71G showed a self-cleavage of 1.08. Work on C58G G82U yielded a self-cleavage of 0.534. C61A G68C gave a self-cleavage of 0.873. Variant G59A U72A has a self-cleavage of 0.698. With G59A U72G the self-cleavage was 0.637. C58A C63G gave a self-cleavage of 0.932. For C58A C63A, the self-cleavage was 1.04. Work on U60C U69A yielded a self-cleavage of 0.802. For U60C U69C, the self-cleavage was 1.2. In the case of C58A C66U, the self-cleavage is reported as 0.917. U60C A87U showed a self-cleavage of 0.921. Work on U60C A87G yielded a self-cleavage of 1.03. C57A C75G showed a self-cleavage of 0.0978. For U60A C86A, the self-cleavage was 0.577. C57A G67U gave a self-cleavage of 1.06. With U60G A70U the self-cleavage was 0.969. For U60A C64G, the self-cleavage was 0.954. Work on U60A C64A yielded a self-cleavage of 0.878. In the case of C58U U60C, the self-cleavage is reported as 1.19. C58U U60A gave a self-cleavage of 0.845. Work on U60C C84A yielded a self-cleavage of 0.698. U60C C84U showed a self-cleavage of 0.918. U60G G68U gave a self-cleavage of 0.762. For U60G G73A, the self-cleavage was 0.591. For C58U U65C, the self-cleavage was 1.03. C58U U65G gave a self-cleavage of 0.964. In the case of A56U C62G, the self-cleavage is reported as 0.601. With U60G C64G the self-cleavage was 0.919. Variant U60G C64U has a self-cleavage of 0.897. C58U showed a self-cleavage of 1.04. Work on C58A yielded a self-cleavage of 1.02. For C58G, the self-cleavage was 0.964. Work on C57A G73A yielded a self-cleavage of 0.708. C57A G73C showed a self-cleavage of 0.523. C58A G68C showed a self-cleavage of 1.03. Work on G59U G76A yielded a self-cleavage of 0.925. Work on U60C A78G yielded a self-cleavage of 0.935. C58G A77G showed a self-cleavage of 0.831. For C61A A71G, the self-cleavage was 1.11. Work on C61A A71U yielded a self-cleavage of 0.784. Work on C61A A83G yielded a self-cleavage of 0.997. Variant C58G C64A has a self-cleavage of 0.855. Variant U60G C63A has a self-cleavage of 0.831. C58U C64U gave a self-cleavage of 0.987. In the case of C57U A77U, the self-cleavage is reported as 0.648. For C57U A77G, the self-cleavage was 0.941. With A56U U72A the self-cleavage was 0.764. For G59C U69C, the self-cleavage was 1.23. For G59U G80C, the self-cleavage was 0.141. With U60C A70U the self-cleavage was 1.15. Work on U60G C86G yielded a self-cleavage of 1.14. For U60A C75U, the self-cleavage was 0.253. U60A C75A showed a self-cleavage of 0.0811. C58G G74U gave a self-cleavage of 0.511. For C61A U69A, the self-cleavage was 1.09. With C61A U69G the self-cleavage was 1.03. With C57U G76U the self-cleavage was 0.906. In the case of C57U G76C, the self-cleavage is reported as 0.902. Variant C57U G76A has a self-cleavage of 1.1. Variant U60A G68C has a self-cleavage of 0.791. In the case of U60G G74A, the self-cleavage is reported as 0.227. For U60G G74C, the self-cleavage was 0.443. In the case of C58U G68A, the self-cleavage is reported as 0.855. C61U A77C showed a self-cleavage of 0.65. In the case of U60C C86G, the self-cleavage is reported as 0.982. In the case of C58U C84G, the self-cleavage is reported as 0.665. Work on C57A U69G yielded a self-cleavage of 0.675. In the case of G59C G76U, the self-cleavage is reported as 0.891. U60C G80U showed a self-cleavage of 0.157. C61A C84G gave a self-cleavage of 0.795. C57U C64A gave a self-cleavage of 0.901. C57U C64G gave a self-cleavage of 0.946. Variant C58G C86G has a self-cleavage of 0.969. With U60G C61A the self-cleavage was 1.11. Work on U60G C61U yielded a self-cleavage of 1.06. Work on A56U G74C yielded a self-cleavage of 0.317. A56U C75U showed a self-cleavage of 0.237. In the case of U60C A83G, the self-cleavage is reported as 0.707. Work on G59A U65A yielded a self-cleavage of 0.933. Variant U60C C61U has a self-cleavage of 0.718. Variant C57G A78G has a self-cleavage of 0.629. C57U C61A gave a self-cleavage of 1.32. Variant C57G G81C has a self-cleavage of 0.177. In the case of C57U C86A, the self-cleavage is reported as 0.882. With G59C C85U the self-cleavage was 1.14. G59C C62A gave a self-cleavage of 0.87. For C61A U65C, the self-cleavage was 0.909. Variant U60A G74U has a self-cleavage of 0.521. For U60A G74C, the self-cleavage was 0.225. Work on A56U U60C yielded a self-cleavage of 1.13. U60G A71G gave a self-cleavage of 0.831. C61G G81C gave a self-cleavage of 0.262. Variant C61G G81A has a self-cleavage of 0.219. Variant C61A A70U has a self-cleavage of 1.17. Variant C61A A70C has a self-cleavage of 1.01. In the case of C57G G74C, the self-cleavage is reported as 0.446. Variant C57A U79A has a self-cleavage of 0.806. Variant U60G A78U has a self-cleavage of 0.178. For U60G A78G, the self-cleavage was 0.72. U60G A78C showed a self-cleavage of 0.151. A56U A78U showed a self-cleavage of 0.0573. A56U A78C gave a self-cleavage of 0.272. G59U A77G showed a self-cleavage of 0.847. G59C G73A showed a self-cleavage of 0.779. With C58A U79G the self-cleavage was 0.772. G59U A78G showed a self-cleavage of 0.904. Work on C57A U60A yielded a self-cleavage of 0.898. For C57A U60C, the self-cleavage was 1.01. For U60A G76C, the self-cleavage was 0.973. For U60A G76U, the self-cleavage was 1.01. Work on C57U A71G yielded a self-cleavage of 1.12. For A56U A83G, the self-cleavage was 0.876. Work on G59U G67U yielded a self-cleavage of 1.17. With G59U C75G the self-cleavage was 0.123.
